Laboratory results: the supplement of paper PMC10724198
± gives the standard deviation of the averaged measurements.

Test system: Saccharomyces cerevisiae
Assay: protein stability index of tFT-peptide fusion (C-terminal peptide) (PSI (0-1 scale)); higher = more stable (slower turnover)
Conditions: genetic background: wild type; temperature: 30 C
Method: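 MPS profiling in S. cerevisiae of the tFT-X12 degron library: putative degron peptides plus stable controls, 12 aa, fused to the C-terminus of a sfGFP-mCherry timer. Cells are FACS-sorted into 8 mCherry/sfGFP bins and deep-sequenced. PSI runs from 0 (unstable) to 1 (stable). Backgrounds are wild type, das1Δ and doa10Δ at 30 °C, and wild type, das1Δ, cdc34-1 and cdc53-1 at 37 °C; 2-3 technical replicates each.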
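Further: PSI is a weighted mean of sequencing reads over stability bins, variants kept only with over 10 reads, mCherry proximal and sfGFP distal, peptide attached via GGGS linker.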

| Sequence | protein stability index |
| --- | --- |
| ISLVLVVIEVQR | 0.143 ± 0.024 |
| ISVFLFAFFFIP | 0.306 ± 0.012 |
| ISVQKRRAIEII | 0.305 ± 0.018 |
| IVCFCFFLMFSL | 0.317 ± 0.017 |
| IVVLCHVFLDLG | 0.0933 ± 0.021 |
| IWCQVGAFLVVF | 0.198 ± 0.02 |
| IYVLLDVNYHLP | 0.361 ± 0.026 |
| IYVSVMLLRYRF | 0.331 ± 0.042 |
| KCKIWFREVSMN | 0.216 ± 0.019 |
| KGSFDLPTFSLF | 0.64 ± 0.031 |
| KICAVRVIMDWC | 0.379 ± 0.018 |
| KIKVFHEMVLMC | 0.139 ± 0.013 |
| KKNKIYKERKNI | 0.289 ± 0.13 |
| KKNTQKKIKLSC | 0.171 ± 0.011 |
| KKRYSEIFKKNG | 0.254 ± 0.023 |
| KLLLTCTFLVFP | 0.369 ± 0.02 |
| KNKRQKNTIRKQ | 0.346 ± 0.025 |
| KQNKKHKKLKSN | 0.0929 ± 0.018 |
| KRLRDFLVIMCS | 0.118 ± 0.019 |
| KTLCFLCRTRNS | 0.433 ± 0.023 |
| KVRVRTTCWRKL | 0.155 ± 0.014 |
| KYHLAAQLLVLL | 0.408 ± 0.0063 |
| LAFAGRCGLYVC | 0.291 ± 0.021 |
| LAGLFICTLISC | 0.191 ± 0.029 |
| LASCRIVVIYSI | 0.202 ± 0.022 |
| LCFEQRYIGVLV | 0.251 ± 0.03 |

| Sequence | protein stability index |
| --- | --- |
| LCFVSTWVWSVG | 0.401 ± 0.01 |
| LCWLCIRWSRVV | 0.0746 ± 0.012 |
| LDIFRKLVIVLC | 0.107 ± 0.025 |
| LEALRFTFYHFF | 0.222 ± 0.018 |
| LEGRVLRIFCVT | 0.212 ± 0.024 |
| LFFRCVFRISFF | 0.254 ± 0.015 |
| LFGIDIVITYLL | 0.304 ± 0.019 |
| LFILRPVVGVLN | 0.408 ± 0.016 |
| LFIWFVSSPFYC | 0.343 ± 0.033 |
| LFIYSVCSYYYE | 0.283 ± 0.016 |
| LFRLPSPLLFFL | 0.429 ± 0.025 |
| LFSAFFPLLFLS | 0.0848 ± 0.0096 |
| LFYATRLLFLCI | 0.3 ± 0.023 |
| LGHSLVRFVYCF | 0.357 ± 0.029 |
| LGVGVVPEFFVV | 0.374 ± 0.022 |
| LLFVVGTGRWVG | 0.183 ± 0.033 |
| LLHSLILLEWVF | 0.182 ± 0.02 |
| LLIFGLLAVPSP | 0.457 ± 0.013 |
| LLLAMLLWVSTM | 0.306 ± 0.021 |
| LLLFLLLPPFPF | 0.445 ± 0.019 |
| LLLLLPLYLLPI | 0.322 ± 0.017 |
| LLLSLYFCFIFF | 0.226 ± 0.022 |
| LLLSSILLILSS | 0.272 ± 0.024 |
| LLPLLLFFSLLR | 0.318 ± 0.034 |
| LLPLSLSLLLSV | 0.429 ± 0.021 |
| LLSAVAHCYFIA | 0.191 ± 0.021 |

| Sequence | protein stability index |
| --- | --- |
| LLSLTLALPLAA | 0.349 ± 0.022 |
| LLVFSSPPPAKF | 0.769 ± 0.026 |
| LLVSCPLVLRFR | 0.431 ± 0.028 |
| LLYSLVALGVCV | 0.277 ± 0.019 |
| LMFCPPLLRVAL | 0.392 ± 0.018 |
| LMFSRSLFIVKC | 0.178 ± 0.025 |
| LMPYIIFLMSFQ | 0.347 ± 0.0081 |
| LPPSVLPLPPSH | 0.679 ± 0.033 |
| LPPVPLRLTLVL | 0.359 ± 0.024 |
| LPRDPLHAQIAS | 0.257 ± 0.031 |
| LQFSLPCFLLIF | 0.159 ± 0.015 |
| LQLRKQILLLMT | 0.195 ± 0.013 |
| LQSVLRGIDCCA | 0.266 ± 0.018 |
| LRCIFVVVSFTP | 0.153 ± 0.035 |
| LRCLAIFLYRAF | 0.404 ± 0.02 |
| LRRQAFRYRTLL | 0.19 ± 0.0052 |
| LRTLVFIWFMYV | 0.143 ± 0.024 |
| LRTYSFTIGTLC | 0.279 ± 0.035 |
| LSALMVLSFILV | 0.355 ± 0.028 |
| LSFRLSYPLPIY | 0.108 ± 0.0014 |
| LSIALPFPVLCR | 0.0877 ± 0.025 |
| LSITQLFCLCAV | 0.272 ± 0.016 |
| LSLSLQVVVFSM | 0.322 ± 0.021 |
| LSPYPLTFLFSQ | 0.393 ± 0.043 |
| LSWWCFLVLLHW | 0.202 ± 0.016 |
| LTPKRLTVCRLC | 0.318 ± 0.008 |
